Results from the RNAGym collection of RNA variant scans (doi:10.1073/pnas.2313332121).
Variants at the floor of the assay were thinned out.

B1: TPR 5TU (parent)
chain: GGAUCUUCUCGAUCUAACAAAAAAGACAAAUCUGCCACAAAGCUUGAGAGCAUCUUCGGAUGCAGAGGCGGCAGCCUUCGGUGGCGCGAUAGCGCCAACGUUCUCAACUAUGACACGCAAAACGCGUGCUCCGUUGAAUGGAGUUUAUCAUG

Variants of: B1
Experiment: polymerase ribozyme fitness, log enrichment relative to wild type (log ratio); higher = more active; in vitro selection for triplet polymerase activity
Outline: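 Fitness is a logarithmic measure of how a genotype enriched relative to the wild type, with replicate averages weighted by inverse variance. The logarithm uses base 2, and enrichment came from Illumina sequencing of input and output libraries. Those libraries were PCR-built, transcribed mutants of each subunit of a heterodimeric triplet polymerase ribozyme, passed through one triplicate in vitro selection round that included frozen incubation at −7 °C, gel excision of extended constructs and streptavidin-bead capture. Genotypes were kept only if they had ≥10 input reads and ≥1 read per output.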

Compared with GGAUCUUCUCGAUGCAACAAAAAAGACAAAUCUGCCACAAAGCUUGAGAGCAUCUUCGGAUGCAGAGGCGGCAGCCUUCGGUGUCGCGAUAGCGCCAACGUUCUCAACUAUGACACGCAAAACGCGUGCUCCGUUGAAUGGAGUUUAUCAUG, GGAUCUUCUCGAUCUAACAAAAAAGACAAAUCUGCCACAAAGCUUGACAGCAUCUUCGGAUGCAGAGGCGGCAGCCUUCGGUGGCGCGAUAGCGCCAACGUUCUCAACUAUGACACGCAAAACGCGUGCUCCGUUGAAUGGAGUGUAUCAUG is higher in “polymerase ribozyme fitness (log ratio)” value: -1.26 for the first, -0.0374 for the second.

Compared with GGAUCUUCUCGAUCUAACAAGAAAGACAAAUCUGCCACUAAGCUUGAGAGCAUCUUCGGAUGCAGAGGCGGCAGUCUUCGGAGGCGAGAUAGCGCCAGCGUUCUCAACUAUGACACGUAAAACGUGUGCUCCGUUGAAUGGAGUUUAUCAUG, GGAUCUUCUCGAUAUAACAAAAAAGACAAAUCUGCCACAACGCUUGAGAGCAUCUUCGGAUGCAGAGGCGGCAGCUUUCGGUGUCGCGAUAGCGCCAACGUUCUCAACUAUGACACGCAAAACGCGUGCUCCGUUGAAUGGAGUUUAUCAUG is higher in “polymerase ribozyme fitness (log ratio)” value: ≤ -4.2 for the first, -2.89 for the second.

First: GGAUCUUCUCGAUCUAACAAAAAAGACAAAUCUGCCACAACGCUUGAGAGCAUCUUCAGAUGCAGAGGCGGCAGCCUUCGGUGGCGCGAUAGCGCCAACGUUCUCAACUAUGACACGCAAAACGCGUGCUCCGUUGAAUGGAGUUUAUCAUG
Second: GGAUCUUCUCGAUCUAACAAAAAAGACAAAUCUGCCACAAAGCUGGAGAGCAUCUACGGAUGCAGAGGAGGCAGCCUUCGGUGGCGCGAUAGCGCAAACGUUCUCAACUAUGACACGCAAAACGCGUGCUUCGUUUAAUGGAGUUUAUCAUG
The “polymerase ribozyme fitness (log ratio)” value of the first is higher: 0.163 for the first, -3.1 for the second.

Compared with GGAUCUUCUCGAGCUAACAAAAAAGACAAAUCUGCCACAAAGCUUGAGAGCAUCUUAGGAUGCAGAGGCGGCAGCCUUCGGUGGCGCGAUAGCGCCAACGUUCUCAACUAUGACACGCAAAACGCGUGCUCCGUUGAAUGGAGUUUAUCAUG, GGAUCUUCUCGAUCUAACAAAAAAGACAAAUCUGCCACAAAACUUGAGAGCAUCAUCGGAUGCAGAGGCGGCAGCCUUCGGUGGCGCGAUAGCGCAAACGUUCUCAACUAUGACACGCAAAACGCGUGCUCCGUUGAAUGGAGUUUAUCAUG is lower in “polymerase ribozyme fitness (log ratio)” value: -0.243 for the first, -4.06 for the second.

First: GGAUCUUCUCGAUCUAACAAAAAAGACAAAUCUGCCACAACGCUUGAGAGCAUCAUCGGAUGCAGAGGCGGCAGCCUUCGGUGGCGCGAUAGCACCAACGUUCUCAACUAUUACACGCAAAACGCGUGCUCCGAUGAAUGGAGUUUAUCAUG
Second: GGAUCUUCUCGAUCUAACAAAAAAGACAAAUCUGCCACAAAGCUUGCGAGCAUCAUCGGGUGCAGAGGCGGCAGCCUUCGGUGGCGCGAUAGCGCCAACGUUCUCAACUAUGACACGCAAAACGCGUGCUCCGUUGAAUGGAGUUUAUCAUG
The “polymerase ribozyme fitness (log ratio)” value of the first is lower: ≤ -4.2 for the first, -0.228 for the second.

First: GGAUCUUCUCGAUCUAACAAAAAAGACAAAUCUGCCACAAAGCUUGAGAGCAUCUGCGGAUGCAGAGGCGGCAGCCUUCGGUGGCGCUAUAUCGCUAACGUUCUCAACUAUGACACGCAAAACGAGUGCUCCGUUGAAUGGAGUUUAUCAUG
Second: GGAUCUUCUCGAUCUAACAAAAAAGACAAAUCUGCCACAAAGCUUGAGAGCAUCUUCGGAUGCAGAGGCGGCUGCCUUCUGUGGCGCGAUAGCGCCAACGUUCUCAACUAUGACACGCAAAACGCGUGCUCCGUUGAAUGGAGUUUAUCAUG
The “polymerase ribozyme fitness (log ratio)” value of the first is lower: -3.87 for the first, -2.82 for the second.

GGAUCUUCUCGAUCUAACACAAAAGACAAAUCUGCCACAAAGCUUGAGAGCAUCUUCGGAUGCAGAGGCGGCGGCCUUCGGUGGCGGGAUAGCGCCAACGUUCUCAACUAUGAUACGCAAAACGCGUGCUCCGUUGAAUGAAGUUUAUCAUG and GGAUCUUCUCGAUCUAACAAAAAAGACAAAUCUGCCACAUAGCUUGAGAGCAUCUUCGGAUGCAGAGCCGGCAGCCUUCGGUGGCGCGAUAGCGCUAACGUUCUAAACUAUGACACGCAAAACGCGUGCUCCGUUGAAUGGAGUUUAUCAUG cannot be ordered by “polymerase ribozyme fitness (log ratio)” value: ≤ -4.2 for the first, ≤ -4.2 for the second.

Compared with GGAUCUUCUCGAUCUAACAAAAAAGACAAAUCUGCCACAAAGCUUGAGAGCAUCUACGGAUGCAGAGGCGGCAGCCUUCGGUGGCGCGAUAGCGCCAACGUUCUCAACUAUGACACGCAAAACGCGUGCUCCGUUGAAUGGAGUUUAUCAUU, GGAUCUUCUCGAUCUAACAAAAAAUACAAAUCUGCCACAAAGCUUGAGACCAUCUUCGGAUGCAGAGGCGGCAGCCUUCGGUGGCGGGAUAGCGCCAACGUUCUCAACUAUGACACGCAAAACGCGUGCUCCGUUUAAUGGAGUUUAUCAUG is lower in “polymerase ribozyme fitness (log ratio)” value: -2.37 for the first, ≤ -4.2 for the second.

GGAUCUUCUCGAACUAACAAAAAAGACAAUUCGGCCACAAAGCUUAAGAGCAUCUUCGGAUGCAGAGGCGGCAGCCUUCGGUGGCACGAUUGCGCCAACGUUCUCAACUAUGACACGCGAAACGCGUGCUCCGUUGAAUGGAGUUUAUCAUG and GGAUCUUCUCGAUCUAACAAAAAAGACAAAUCUGCCACAAAGCUUGAGAGCAUCUUCGGAUGCAGAGGCGACAGCCUUCGGUGGGGUGAUAGCGCCAACGUUCUCAACUAUGACACGCAAAACGCGUGCUCCGUUGAAUGGAGUUUAUCAUG cannot be ordered by “polymerase ribozyme fitness (log ratio)” value: ≤ -4.2 for the first, ≤ -4.2 for the second.

For GGAUCUUCUCGAUCUAACAAAAAAGCCAAAUCUGCCACAAAGCUUGAGAGCUUUUUCAGAUGCAGAGGCGACACCCUUCGGUGGCGUGAUAGCGCCAACGUUCUCAAAUAUGACACGCAAAACGCGUGCUCCGUUGAAUGGAGUUUAUCAUG, the “polymerase ribozyme fitness (log ratio)” value was ≤ -4.2.
